Here are results for one molecule from paper PMC6497562 (Molecular cancer research : MCR, 2019).

The target in this test is neurofibromin (human (endogenous in 786-0 and RCC4), UniProt P21359-2 1-2818). The experiment in a line: co-IP.

B1: hypoxia-associated factor (HAF), endogenous (natural protein, human (endogenous in 786-0), UniProt O43290 1-800, looked up)
chain: MGSSKKHRGEKEAAGTTAAAGTGGATEQPPRHREHKKHKHRSGGSGGSGGERRKRSRERGGERGSGRRGAEAEARSSTHGRERSQAEPSERRVKREKRDDGYEAAASSKTSSGDASSLSIEETNKLRAKLGLKPLEVNAIKKEAGTKEEPVTADVINPMALRQREELREKLAAAKEKRLLNQKLGKIKTLGEDDPWLDDTAAWIERSRQLQKEKDLAEKRAKLLEEMDQEFGVSTLVEEEFGQRRQDLYSARDLQGLTVEHAIDSFREGETMILTLKDKGVLQEEEDVLVNVNLVDKERAEKNVELRKKKPDYLPYAEDESVDDLAQQKPRSILSKYDEELEGERPHSFRLEQGGTADGLRERELEEIRAKLRLQAQSLSTVGPRLASEYLTPEEMVTFKKTKRRVKKIRKKEKEVVVRADDLLPLGDQTQDGDFGSRLRGRGRRRVSEVEEEKEPVPQPLPSDDTRVENMDISDEEEGGAPPPGSPQVLEEDEAELELQKQLEKGRRLRQLQQLQQLRDSGEKVVEIVKKLESRQRGWEEDEDPERKGAIVFNATSEFCRTLGEIPTYGLAGNREEQEELMDFERDEERSANGGSESDGEENIGWSTVNLDEEKQQQDFSASSTTILDEEPIVNRGLAAALLLCQNKGLLETTVQKVARVKAPNKSLPSAVYCIEDKMAIDDKYSRREEYRGFTQDFKEKDGYKPDVKIEYVDETGRKLTPKEAFRQLSHRFHGKGSGKMKTERRMKKLDEEALLKKMSSSDTPLGTVALLQEKQKAQKTPYIVLSGSGKSMNANTITK
Turning to B1, the “fold increase of binding in hypoxia over normoxia” value is around 2 fold.
